# Values of other authors in patent US20140011241A1, “Method enabling isomerization process flows at lower pH, lower temperature, and in the presence of certain inhibiting compounds by using the xylose isomerase enzyme from the microorganism Fulvimarina pelagi” (priority 2011, published 2014).
# Test system: xylose isomerase
molecule,measurement,value
"xylose isomerase from Thermus thermophilus: xylose isomerase from Thermus thermophilus and mutants derived from it (U.S. Pat. No. 6,475,768) (protein, UniProt P26997 1-387, looked up) Xylose isomerase: MYEPKPEHRFTFGLWTVGNVGRDPFGDAVRERLDPVYVVHKLAELGAYGVNLHDEDLIPRGTPPQERDQIVRRFKKALDETGLKVPMVTANLFSDPAFKDGAFTSPDPWVRAYALRKSLETMDLGAELGAEIYVVWPGREGAEVEATGKARKVWDWVREALNFMAAYAEDQGYGYRFALEPKPNEPRGDIYFATVGSMLAFIHTLDRPERFGLNPEFAHETMAGLNFVHAVAQALDAGKLFHIDLNDQRMSRFDQDLRFGSENLKAAFFLVDLLESSGYQGPRHFDAHALRTEDEEGVWAFARGCMRTYLILKERAEAFREDPEVKELLAAYYQEDPAALALLGPYSREKAEALKRAELPLEAKRRRGYALERLDQLAVEYLLGVRG",activity at low temperature,very low
same,pH at which active,6
